This assay addresses Human CD4 on CD4+CD25+ regulatory T cells of healthy donors (human) (UniProt P01730). Nature of the assay: cell-based or functional assay.

In turn, Negative control (antibody) gave a % Inh2 of 7%, a % Inh3 of 5.2% and an Avg. % inhibition of 5.1%.

The values above are taken from US20130004513A1.
